Experimental data as given in the supplement of paper PMC12042874.
± gives the uncertainty stated by the source.

Test: amyloid nucleation score (Sup35N fusion, yeast selection) (log enrichment); library NNK3; higher = more nucleation; inactive = no reads after selection
Summary of the method: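 In psi-negative yeast, Sup35N fusions carrying peptides of 20 random codons were induced with 100 μM copper sulfate for 24 hours. The cells then grew 7 days at 30°C on medium lacking adenine and uracil, and plasmid inserts from input and output were Illumina-sequenced, excluding sequences with under 100 input reads. Nucleation score is the DiMSum log enrichment of output over input reads, centred on the mode score of non-aggregating sequences.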

Substance	amyloid nucleation score
LSLFPMGCIYKHRIGLVTAK	inactive
IIVMDCNGKLNGINHWVRVD	inactive
CVNMLRKTVIYFLHFPAYYR	inactive
VLLFYLKVTRASTVGVLSSS	inactive
NCRLEESGLVTVNCVGYWWD	inactive
LVLMCIIARIAVVYKR	inactive
YKEMVRRNLSRANKFDCGSM	inactive
ERSVPSGE	inactive
ISVVGILLGLSSFPVYSVSW	inactive
MSLNLHLKQGVFKGHTVSAL	inactive
FGYYTWTAYER	inactive
ITRTYNYLYTCINTFRQPSV	0.045 ± 0.45
FWIWIWRIWYDGNEDNLDHF	inactive
AYQCHDDVVWWRCQMASCS	inactive
NVGMSKNVFGM	inactive
DMDDHPDYHRNTND	inactive
CPYVKSHSICDDSSGLPRLK	inactive
YFHGFLFYSE	inactive
LRTFKITFRGTVKTRRSLTN	0.466 ± 0.63
RAYSSWSLSSCRCNSDWTVG	inactive
NNRDDK	inactive
TFWMPD	-0.55 ± 1.3
LRNLVTWRVQSKWFSIQSSW	inactive

Substance	amyloid nucleation score
WFISTFDLDRYKFASCSKAW	inactive
LYMKSTKLVLTKRDISTFRC	1.11 ± 0.14
FGHYRYEFCELSGHGMGVDA	inactive
SSKCWSTSCFFKGKSLSSLG	inactive
LSSLVSFVITQLRLLMKTER	inactive
LRTAEDFETS	-0.416 ± 1.5
CEFTYGKDAKVRTEAYHAYW	inactive
SFYSNFRESRDLSSYTLNIS	inactive
FTLARAMPLGYSQGIMKSRG	inactive
FIVSNYKSFVLYHLLNRMLV	inactive
LSFTHSSDTECCGER	inactive
LVKLKL	inactive
HSRAVLTLLW	inactive
YSMQVICISCVLRIDIGDVA	0.89 ± 0.16
CILYRFPPATKSHRITGIYK	inactive
KVSWMFYRCSDNNN	1.66 ± 0.074
TIPLSFFDHI	inactive
NLWTTGIRTSPKNLYIVAFM	inactive
GWNTSSQRLHSAKPSHHRR	-0.892 ± 1.9
DSFVLYALCNYWCSFCIKGA	1.8 ± 0.09
TIYSLFSLYLGIWQAPASVY	-0.455 ± 0.53
VVMHAYCWLWNYSDFSIMGS	1.57 ± 0.094
QVKLGRTLTSGQGFTQLHSV	-0.852 ± 2.5

Substance	amyloid nucleation score
VMFLFGYNKVFKLSICWIGS	inactive
AVDLNVTLQWVCSRGRRWVF	0.051 ± 0.3
NVAFQCQKLTLLKGKLEPDR	0.272 ± 0.93
APFRMLAFGMWEALMAGSNS	inactive
EQKGKQFEVSVDSYSTWEVG	inactive
RSSVLLS	inactive
LCITPNLKSFFESYVRFSEL	inactive
AYIDNRSYVCDALKCLW	2.92 ± 0.055
LLCFVDVSYVHNA	0.834 ± 0.23
YICLYHLLVWWDRQFRGFNS	inactive
GGVRPVKYGSVWVYRFWDQC	inactive
QVLLCNAPFRQLYVACFYCF	0.422 ± 0.38
DPYFVG	inactive
INICLLLKQRHEWMCCKNCM	2.85 ± 0.074
VLRKLYLSPDSGVNYCGDPV	inactive
EYELESESKCPLDFAFIKKG	inactive
SFIRASKVCFDSHGCWFGLG	inactive
NLGLLKAVYCVG	inactive
DVRRWNNYDLRGWVVA	inactive
GLCRWVTPTAWSAIVVQFCV	inactive
VCGIVIRGKVPKDKQYNMGE	inactive
CIMRMTFTMITYCNSLSLGS	inactive
RILPYSGSALLISTGFYHR	inactive

Substance	amyloid nucleation score
NVRGDSRA	inactive
TSSFVKSFRCYSAIG	inactive
SGSSMTS	inactive
FYYYDLYYGRVFRDSPYSMS	inactive
ITAVVVSDMYH	inactive
NNLMLV	inactive
FDLPCSYRCSMTYCYGVNGI	1.02 ± 0.18
HIPGNLYYKDTFRCAELGHW	inactive
KRVDYCFMIGVMTCVNHPTE	inactive
INHFLFYANNRYRRHILVGC	inactive
LHHAVVREWRFQKNVCRQLR	inactive
KLKVVVIKNICFG	1.82 ± 0.083
MLSGWFGLMIGCTAVVWSDS	inactive
IWIRAVDLGLDGLPSFFSIS	inactive
TFSDRSFRQWVWQELSFCGS	inactive
DWLMPIFQVNIEMLWLSWLW	inactive
ISILEVKMWLLWTELERTIT	inactive
FVVSKLYMPRWASLLLCWRL	inactive
CWAYF	inactive
NSFMCCRSWDTN	2.71 ± 0.069
TTASFFLNKISLKNHRASCT	inactive
LFLWKTTMTPGLHRSSVVGR	inactive
IADCVLIN	inactive

Substance	amyloid nucleation score
ATGDNNLGIMAMALYT	inactive
ISGLSNMAYFLVNAWKLM	inactive
RQNPGLGFLNFFLMV	0.258 ± 0.35
DSSPVPKGYNRVRPLVNLAV	inactive
FLPCRFHNSLTDND	inactive
IFWHQRRLMTCCNKYTFGYG	inactive
KLLSTRRCFRCLLGQWSLFM	1.17 ± 0.14
LAFVANY	inactive
RLINVMVCYLLEGCQGLLL	1.67 ± 0.1
HMLSNFGARVREYIAMFGRL	inactive
QPVICNIRSSRCV	inactive
FYSLWRNRYNNSNQEWDIRW	inactive
LHGHLGWWNVLDCPICLNFI	inactive
WLVGFLFILWV	inactive
LQAYAMGNYRGDKK	inactive
LKSGVFFG	inactive
MSGLLCAEIWSRCPASFIGD	inactive
YHLYDETMCMP	inactive
ESWVFRTRDMPGEFTSSVCM	inactive
TRDRCLRFKLVPVYFVWTCG	inactive
RTLYSQNFK	inactive
SRMTIIWVTVRISRNGTWNF	inactive
YMGEVCCIVVVTDHLCTVVI	inactive

Substance	amyloid nucleation score
PLRLCNPLSGFVPLLFTAFR	inactive
TCNIFLGAPHGAVGRCCRAR	1.82 ± 0.11
LTTQSGLMAGRKKFWDAELG	0.902 ± 0.21
FLTFHGC	inactive
CFTDSFINTLCVFNIDPGFP	2.46 ± 0.051
WPLYNFVISWIGRTYYSVYL	inactive
GSSRQNY	inactive
GEILSGITTLGVYYSYVWHL	inactive
VSMSLDCM	inactive
ADERRVIR	inactive
YCGNLYRDFLGQQPF	inactive
YTTKRL	inactive
MNFGFWGTVHWSHASNHVGS	inactive
TGRLVIFTEWRLSAESSRSH	inactive
FSGCWRWNNQ	inactive
HGAVRQLNRGRKWSSLETVG	0.85 ± 0.19
KYYLALIYSKLRMIVSCFGF	0.033 ± 0.44
RRVTRSSKAYRVGVSWDGIG	0.047 ± 0.33
TCCCVYGTMIISEYFHGSNM	2.73 ± 0.056
HLPRKLVRPRRF	-0.415 ± 1.2
NILKKLNVRNHFLVLMKKHM	inactive
GYMRSLYIRYYSRRRFRCI	inactive
TMFIVNTNIWSGVCISDNTW	1.78 ± 0.067

Substance	amyloid nucleation score
CVDVSGLFGNIMEVILVMSW	inactive
SIAIRVRAIIGKSRGKCPNG	1.81 ± 0.092
YLYRFLPVQTRPLMHATSYI	inactive
YGKFMLLPVAGGIFVFENML	1.25 ± 0.14
PIVEYVFTPMF	inactive
CSDATIGQNSGSHDQLNRSD	inactive
VHREVGLDFYDNVTCTMFHI	inactive
ISTKDTLM	inactive
AIIVQLIDLLMRPARPVFVE	inactive
FVVFCRNPNSGLGNCTVSCD	inactive
LCDVQNTNNW	inactive
LWPRRADVKQASRQPDYQCV	-0.727 ± 1
VHFYWS	inactive
MKYAFRFCRPSVRWVYDPRL	inactive
LRGSYNVS	inactive
VTKVYGDVVLEWRHDVLFGG	0.503 ± 0.32
GTMVSEIDWVRLTYTGYSE	inactive
FEWLWIFWYNLFWLWGNYSI	inactive
PFSRTERRFYK	-0.463 ± 1.7
HWHMIMIKCQLEFTKEVIRA	inactive
